Results: US20230235304
Where a chain is given by its changes, count along the chain named.

What was measured:
Experiment in all cases: cell_activity
Conditions in all cases: PAM 5'-GCTG-3'; HEK293T; averaged over AAVS1, VEGFA, EMX1 targets
[1] = system: T1, CRISPR nuclease variant D535G D535G (synthetic construct)
T1 sequence: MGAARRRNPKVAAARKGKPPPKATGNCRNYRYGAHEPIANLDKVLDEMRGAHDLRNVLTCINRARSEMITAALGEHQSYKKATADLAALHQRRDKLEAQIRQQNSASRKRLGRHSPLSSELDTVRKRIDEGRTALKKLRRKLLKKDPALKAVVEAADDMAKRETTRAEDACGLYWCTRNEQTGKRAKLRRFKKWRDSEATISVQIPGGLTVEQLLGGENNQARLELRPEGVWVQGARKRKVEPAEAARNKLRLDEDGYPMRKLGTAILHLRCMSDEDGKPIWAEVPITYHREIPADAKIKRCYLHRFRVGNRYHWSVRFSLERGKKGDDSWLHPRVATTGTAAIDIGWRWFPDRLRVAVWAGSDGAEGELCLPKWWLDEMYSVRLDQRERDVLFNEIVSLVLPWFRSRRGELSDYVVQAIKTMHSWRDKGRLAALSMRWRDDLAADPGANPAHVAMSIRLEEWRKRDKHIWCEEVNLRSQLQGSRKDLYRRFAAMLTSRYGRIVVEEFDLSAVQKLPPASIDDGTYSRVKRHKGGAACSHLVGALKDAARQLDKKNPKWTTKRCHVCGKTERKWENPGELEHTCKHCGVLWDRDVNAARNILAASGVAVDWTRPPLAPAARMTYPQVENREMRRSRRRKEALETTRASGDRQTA

[2] = system: T2, CRISPR nuclease variant Q514G Q514G (synthetic construct)
T2 sequence: T1 sequence with Q514G, G535D

[3] = system: T3, CRISPR nuclease variant K136G,N220R,M380R K136G,N220R,M380R (synthetic construct)
T3 sequence: T1 sequence with K136G, N220R, M380R, G535D

[4] = system: T4, CRISPR nuclease variant L580G,L385G L580G,L385G (synthetic construct)
T4 sequence: T1 sequence with L385G, G535D, L580G

GGUCCCAUCGGAACGGGUUGUGGUUCCGACGGAGGGAUACAUUGGUGGGG / GGAGGGATACATTGGTGGGG / CCCCACCAATGTATCCCTCC [AAVS1 crRNA (Table 5) ; AAVS1 target (Table 5)]
binding signal (fold indels vs WT) [1]: 3.57
binding signal (fold indels vs WT) [2]: 3.53
binding signal (fold indels vs WT) [3]: 4.54
binding signal (fold indels vs WT) [4]: 3.9
